Experimental data from publication PMC3009601, “Structural Basis for Apoptosis Inhibition by Epstein-Barr Virus BHRF1” (PLoS Pathogens, 2010).

T1: BHRF1ΔC31 (Epstein-Barr virus, UniProt P03182)
T1 chain: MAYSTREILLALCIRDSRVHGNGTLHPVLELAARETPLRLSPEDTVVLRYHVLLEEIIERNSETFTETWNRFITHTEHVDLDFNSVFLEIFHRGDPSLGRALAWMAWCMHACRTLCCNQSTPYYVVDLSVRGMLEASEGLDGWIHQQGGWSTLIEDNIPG

T2: BHRF1ΔC31 (Epstein-Barr virus, UniProt P03182)
T2 construct: Epstein-Barr virus BHRF1 (viral Bcl-2 homolog) lacking the C-terminal 31 residues (ΔC31); electron density seen for residues 2-158 in the Bim complex; Cloned into pET DUET with BamHI and EcoRI; also called recombinant C-terminally truncated form of BHRF1; recombinant BHRF1; source: E. coli BL21 DE3 pLysS, purified (nickel Hi-Trap chelating column, Superdex 200 gel filtration)
T2 sequence: T1 chain


How the values were obtained:
[1] = biological target: T3, BHRF1 (recombinant; BHRF1ΔC31) (Epstein-barr virus strain ag876, UniProt P0C6Z1); test: biosensor assay; format: binding
T3 construct: C-terminally truncated (last 31 residues removed, ΔC31), His-tagged, E. coli BL21(DE3) pLysS; the ABT-737 sentence says only 'recombinant BHRF1'

[2] = biological target: BHRF1ΔC31 (Epstein-Barr virus) (UniProt P03182); test: ITC; VP-ITC (MicroCal), recombinant BHRF1ΔC31 with BH3 domain peptides; Kd values are the means of 3 experiments ± SD
BHRF1ΔC31 [3] = biological target: T1, BHRF1ΔC31; test: ITC
BHRF1ΔC31 [4] = biological target: T2, BHRF1ΔC31; test: ITC; VP-ITC (MicroCal), recombinant BHRF1ΔC31 with BH3 domain peptides; Kd values are the means of 3 experiments ± SD; conditions: both partners purified

Molecule	Kd [2] [nM]	Kd (BHRF1ΔC31 [4]) [nM]	other results
CN(C)CC[C@H](CSc1ccccc1)Nc1ccc(S(=O)(=O)NC(=O)c2ccc(N3CCN(Cc4ccccc4-c4ccc(Cl)cc4)CC3)cc2)cc1[N+](=O)[O-] [ABT-737]	–	–	IC50 [1]: > 20000 nM
human Puma BH3 26-mer peptide	70	–	–
human Bim BH3 26-mer peptide	18	–	–
human Bak BH3 26-mer peptide	150	–	–
PQDASTKKLSECLKRIGDELDSNMELQR [human Bax BH3 28-mer peptide]	–	> 1000	Kd (BHRF1ΔC31 [3]): 1400 nM
SESQEDIIRNIARHLAQVGDSMDRSIPPGLVNGL [human Bid BH3 34-mer peptide]	–	110	–
